Tests used:
FcγRIIB-Acro (human) = FcγRIIB-Acro (human) (UniProt P31994); experiment: SPR (Biacore T200), antibody captured on protein A sensor chip, Fc receptor as analyte; analyte range 3200nm-25nm
[1] = molecular target: FcγRIIIA-F176-Sino (human) (UniProt P08637); experiment: SPR Biacore T200; binder captured on protein A chip, Fc receptor as analyte

PDL1-avelumab (antibody) was tested. Which Kd (FcγRIIB-Acro (human)) did it give?
Its Kd is 3.33 µM.

And the Kd [1]?
Its Kd is 0.563 µM.

From patent US20240360201A1
